Reference: US20260265379A1 (IMCHECK THERAPEUTICS, published 2026)
Values belong to the binder of their own block, whether it stands above or below them.

What was measured:
[1] = biological target: T1, recombinant human BTN3A1 (human, UniProt O00481 30-254); test: SPR
T1 construct: Soluble form of the antigen used in SPR; also called rhBTN3A1; recombinant BTN3A1 protein
Method: (§1) SPR measures the interactions between two or more biomolecules. In capture kinetics analysis, an antibody is immobilized onto a gold-plated prism. The immobilized antibody is referred to as the ligand. An injection of antigen, referred to as the analyte, is carried out, often as a concentration series. The captured analytes are removed from the sensor chip surface using a regenerating agent, for example a low pH or high ionic strength solution. If investigating binding to several analytes, the antibodies are recaptured from solution before each analyte titration series. The instrument records the changes in refractive indexes (due to the accumulation or depletion of mass) in time and plots the results as sensorgrams.
(§2) Affinity measurements with respect to BTN3A, PD-1 and PD-L1 were performed by SPR technology, for instance in a Carterra LSA Platform instrument using a soluble form of the antigen as the analyte and the antibody as the ligand. Binding was also assessed through in cellulo binding assays, on cell lines (e.g. HEK293T cells) genetically modified to express the targets of interest or genetically modified to extinct target expression.
(§3) The 69 produced bsAbs and control mAbs were also evaluated for their binding affinity to recombinant proteins by SPR assays. The equilibrium dissociation constant (KD) was then calculated for constructs showing detectable binding.

[2] = biological target: T2, recombinant human PD-1 (human, UniProt Q15116 25-167, limits assumed); test: SPR
T2 construct: Soluble antigen in SPR; also called rhPD-1
Method: as §1, §2, §3

[3] = biological target: T3, BTN3A1 at the surface of HEK-BTN3A1 cells (human, UniProt O00481 30-513); test: flow cytometry, HEK-BTN3A1 cells
T3 construct: HEK 293T BTN2A/BTN3A KO cells transduced with a BTN3A1 expressing vector

[4] = biological target: T4, PD-1 at the surface of Jurkat-PD-1 cells (human, UniProt Q15116 25-288); test: flow cytometry, Jurkat-PD-1 cells
T4 construct: whole, on cells

[5] = biological target: T5, PD-L1 at the surface of transduced cells (UniProt Q9NZQ7 19-290, limits assumed); test: cell-based or functional assay
[6] = biological target: T5, PD-L1 at the surface of transduced cells; test: flow cytometry, CHO-PD-L1 cells

T1 sequence (O00481 30-254 limits assumed): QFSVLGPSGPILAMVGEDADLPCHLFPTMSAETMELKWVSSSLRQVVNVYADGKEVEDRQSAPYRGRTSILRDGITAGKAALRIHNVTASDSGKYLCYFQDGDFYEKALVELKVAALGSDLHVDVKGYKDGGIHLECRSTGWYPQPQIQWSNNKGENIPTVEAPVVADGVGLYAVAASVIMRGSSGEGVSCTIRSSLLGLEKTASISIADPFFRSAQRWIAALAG
T4 sequence (Q15116 25-288): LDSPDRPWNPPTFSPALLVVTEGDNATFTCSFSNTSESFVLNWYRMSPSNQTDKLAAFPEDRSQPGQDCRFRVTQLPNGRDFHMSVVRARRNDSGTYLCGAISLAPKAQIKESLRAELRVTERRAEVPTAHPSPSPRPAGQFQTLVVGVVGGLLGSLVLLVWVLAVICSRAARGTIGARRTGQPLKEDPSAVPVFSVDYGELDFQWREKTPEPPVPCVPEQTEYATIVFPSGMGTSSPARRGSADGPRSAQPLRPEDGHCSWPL
T3 sequence (O00481 30-513 limits assumed): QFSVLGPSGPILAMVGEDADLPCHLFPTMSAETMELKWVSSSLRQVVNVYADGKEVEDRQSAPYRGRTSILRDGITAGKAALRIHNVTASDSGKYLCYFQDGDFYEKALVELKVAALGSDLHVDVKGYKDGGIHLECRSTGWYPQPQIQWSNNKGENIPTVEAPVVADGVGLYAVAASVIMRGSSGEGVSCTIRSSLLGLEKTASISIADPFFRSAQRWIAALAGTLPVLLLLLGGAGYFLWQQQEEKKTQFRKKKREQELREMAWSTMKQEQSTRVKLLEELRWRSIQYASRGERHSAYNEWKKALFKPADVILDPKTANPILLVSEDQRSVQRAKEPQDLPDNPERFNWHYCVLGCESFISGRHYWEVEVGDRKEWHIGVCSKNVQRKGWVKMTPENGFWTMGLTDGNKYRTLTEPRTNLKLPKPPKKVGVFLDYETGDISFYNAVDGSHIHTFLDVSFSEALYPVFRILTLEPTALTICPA
T2 sequence (Q15116 25-167 limits assumed): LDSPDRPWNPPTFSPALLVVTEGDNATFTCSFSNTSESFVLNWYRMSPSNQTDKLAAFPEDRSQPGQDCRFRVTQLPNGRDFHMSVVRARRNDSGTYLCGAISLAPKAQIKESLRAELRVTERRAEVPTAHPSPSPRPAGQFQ
T5 sequence (Q9NZQ7 19-290 limits assumed): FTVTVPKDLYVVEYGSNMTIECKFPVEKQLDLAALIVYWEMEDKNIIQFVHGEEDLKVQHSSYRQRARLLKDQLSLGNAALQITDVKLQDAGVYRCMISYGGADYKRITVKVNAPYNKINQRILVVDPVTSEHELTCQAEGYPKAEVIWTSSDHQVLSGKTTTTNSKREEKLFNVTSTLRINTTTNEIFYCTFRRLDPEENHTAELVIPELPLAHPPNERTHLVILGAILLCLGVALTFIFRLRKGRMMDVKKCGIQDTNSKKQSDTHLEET

B3: bsAb053 (bispecific antibody)
heavy (part 1 of 2): QVQLVQSGVEVKKPGASVKVSCKASGYTFTNYYMYWVRQAPGQGLEWMGGINPSNGGTNFNEKFKNRVTLTTDSSTTTAYMELKSLQFDDTAVYYCARRDYRFDMGFDYWGQGTTVTVSS
heavy (part 2 of 2): GGGGSGGGGSGGGGSGGGGSQVQLVQSGAEVKKPGASVKLSCKASGYIFTRYYMYWVKQRPGQGLEWIGEINPNNGGTKFNEKFKNRATLTVDKSISTAYMELSRLRSDDTAVYYCSREDDYDGTPFAMDYWGQGTLVTVSSGGGGSGGGGSGGGGSGGGGSDIQMTQSPSSLSASVGDRVTITCHASQNINVWLSWYQQKPGKAPKLLIYKASNLHTGVPSRFTGSGSGTDFTFTISSLQPEDIATYYCQQGQTYPYTFGQGTKLEIK
heavy: B3 heavy (part 1 of 2)
light: EIVLTQSPATLSLSPGERATLSCRASKGVSTSGYSYLHWYQQKPGQAPRLLIYLASYLESGVPARFSGSGSGTDFTLTISSLEPEDFAVYYCQHSRDLPLTFGGGTKVEIKRTVAAPSVFIFPPSDEQLKSGTASVVCLLNNFYPREAKVQWKVDNALQSGNSQESVTEQDSKDSTYSLSSTLTLSKADYEKHKVYACEVTHQGLSSPVTKSFNRGEC
notes: IgG anti-PD-1, one scFv anti-BTN3A; not shown: IgG1 CH1-hinge-CH2-CH3
Kd [1]: 0.393 nM | Kd [2]: 0.984 nM | MFI at 10 nM [3]: 494000 MFI | MFI at 100 nM [3]: 1.24e+06 MFI | MFI at 10 nM [4]: 187000 MFI | MFI at 100 nM [4]: 424000 MFI

B4: bsAb039 (bispecific antibody)
heavy (part 1 of 2): B3 heavy (part 1 of 2)
heavy (part 2 of 2): GGGGSGGGGSGGGGSGGGGSDIQMTQSPSSLSASVGDRVTITCHASQNINVWLSWYQQKPGKAPKLLIYKASNLHTGVPSRFTGSGSGTDFTFTISSLQPEDIATYYCQQGQTYPYTFGQGTKLEIKGGGGSGGGGSGGGGSGGGGSQVQLVQSGAEVKKPGASVKLSCKASGYIFTRYYMYWVKQRPGQGLEWIGEINPNNGGTKFNEKFKNRATLTVDKSISTAYMELSRLRSDDTAVYYCSREDDYDGTPFAMDYWGQGTLVTVSS
heavy: B4 heavy (part 2 of 2)
light: B3 light
notes: one Fab arm anti-PD-1, two scFv anti-BTN3A; not shown: IgG1 CH1-hinge-CH2-CH3; CH2-CH3 (Fc)
Kd [1]: 0.187 nM | Kd [2]: 2.1 nM | MFI at 10 nM [3]: 1.14e+06 MFI | MFI at 100 nM [3]: 1.81e+06 MFI | MFI at 10 nM [4]: 294000 MFI | MFI at 100 nM [4]: 283000 MFI

B6: bsAb050 (bispecific antibody)
heavy 1: EVQLVESGGGLVQPGGSLRLSCAASGFTFSRYWMSWVRQAPGKGLEWVANIKQDGSEKYYVDSVKGRFTISRDNAKNSLYLQMNSLRAEDTAVYYCAREGGWFGELAFDYWGQGTLVTVSSGGGGSGGGGSGGGGSGGGGSEIVLTQSPGTLSLSPGERATLSCRASQRVSSSYLAWYQQKPGQAPRLLIYDASSRATGIPDRFSGSGSGTDFTLTISRLEPEDFAVYYCQQYGSLPWTFGQGTKVEIKGGGGSGGGGSGGGGSGGGGSQVQLVQSGAEVKKPGASVKLSCKASGYIFTRYYMYWVKQRPGQGLEWIGEINPNNGGTKFNEKFKNRATLTVDKSISTAYMELSRLRSDDTAVYYCSREDDYDGTPFAMDYWGQGTLVTVSS
heavy 2: QVQLVQSGAEVKKPGASVKLSCKASGYIFTRYYMYWVKQRPGQGLEWIGEINPNNGGTKFNEKFKNRATLTVDKSISTAYMELSRLRSDDTAVYYCSREDDYDGTPFAMDYWGQGTLVTVSS
light: not shown
notes: IgG anti-BTN3A, one scFv anti-PD-L1; not shown: IgG1 CH1-hinge-CH2-CH3
Kd [1]: 0.08 nM | Jurkat-PD-1 activation at 10 nM [5]: 6.9 fold-change to medium | Jurkat-PD-1 activation at 100 nM [5]: 7.8 fold-change to medium | MFI at 10 nM [6]: 1.18e+06 MFI | MFI at 100 nM [6]: 1.32e+06 MFI | MFI at 10 nM [3]: 535000 MFI | MFI at 100 nM [3]: 1.2e+06 MFI

B7: bsAb037 (bispecific antibody)
heavy 1: B3 heavy (part 1 of 2)
heavy 2: DIQMTQSPSSLSASVGDRVTITCHASQNINVWLSWYQQKPGKAPKLLIYKASNLHTGVPSRFTGSGSGTDFTFTISSLQPEDIATYYCQQGQTYPYTFGQGTKLEIKGGGGSGGGGSGGGGSGGGGSQVQLVQSGAEVKKPGASVKLSCKASGYIFTRYYMYWVKQRPGQGLEWIGEINPNNGGTKFNEKFKNRATLTVDKSISTAYMELSRLRSDDTAVYYCSREDDYDGTPFAMDYWGQGTLVTVSSGGGGSGGGGSGGGGSGGGGS
light: EIVLTQSPATLSLSPGERATLSCRASKGVSTSGYSYLHWYQQKPGQAPRLLIYLASYLESGVPARFSGSGSGTDFTLTISSLEPEDFAVYYCQHSRDLPLTFGGGTKVEIKRTVAAPSVFIFPPSDEQLKSGTASVVCLLNNFYPREAKVQWKVDNALQSGNSQESVTEQDSKDSTYSLSSTLTLSKADYEKHKVYACEVTHQGLSSPVTKSFNRGECGGGGSGGGGSGGGGSGGGGSQVQLVQSGAEVKKPGASVKLSCKASGYIFTRYYMYWVKQRPGQGLEWIGEINPNNGGTKFNEKFKNRATLTVDKSISTAYMELSRLRSDDTAVYYCSREDDYDGTPFAMDYWGQGTLVTVSSGGGGSGGGGSGGGGSGGGGSDIQMTQSPSSLSASVGDRVTITCHASQNINVWLSWYQQKPGKAPKLLIYKASNLHTGVPSRFTGSGSGTDFTFTISSLQPEDIATYYCQQGQTYPYTFGQGTKLEIK
notes: as for B4
Kd [1]: 0.086 nM | Kd [2]: 1.1 nM | MFI at 10 nM [3]: 585000 MFI | MFI at 100 nM [3]: 1.25e+06 MFI | MFI at 10 nM [4]: 238000 MFI | MFI at 100 nM [4]: 270000 MFI

Other lines, results leading:

Kd [1]: 0.068 nM | Kd [2]: 1.5 nM | MFI at 10 nM [3]: 816000 MFI | MFI at 100 nM [3]: 944000 MFI | MFI at 10 nM [4]: 186000 MFI | MFI at 100 nM [4]: 275000 MFI
B1: bsAb021 (bispecific antibody)
heavy: QVQLVQSGAEVKKPGASVKLSCKASGYIFTRYYMYWVKQRPGQGLEWIGEINPNNGGTKFNEKFKNRATLTVDKSISTAYMELSRLRSDDTAVYYCSREDDYDGTPFAMDYWGQGTLVTVSSGGGGSGGGGSGGGGSGGGGSDIQMTQSPSSLSASVGDRVTITCHASQNINVWLSWYQQKPGKAPKLLIYKASNLHTGVPSRFTGSGSGTDFTFTISSLQPEDIATYYCQQGQTYPYTFGQGTKLEIKGGGGSGGGGSGGGGSGGGGSQVQLVQSGVEVKKPGASVKVSCKASGYTFTNYYMYWVRQAPGQGLEWMGGINPSNGGTNFNEKFKNRVTLTTDSSTTTAYMELKSLQFDDTAVYYCARRDYRFDMGFDYWGQGTTVTVSSASTKGPSVFPLAPSSKSTSGGTAALGCLVKDYFPEPVTVSWNSGALTSGVHTFPAVLQSSGLYSLSSVVTVPSSSLGTQTYICNVNHKPSNTKVDKRVEPKSCDKTHTCPPCPAPEFEGGPSVFLFPPKPKDTLMISRTPEVTCVVVDVSHEDPEVKFNWYVDGVEVHNAKTKPREEQYNSTYRVVSVLTVLHQDWLNGKEYKCKVSNKALPASIEKTISKAKGQPREPQVYTLPPSREEMTKNQVSLTCLVKGFYPSDIAVEWESNGQPENNYKTTPPVLDSDGSFFLYSKLTVDKSRWQQGNVFSCSVMHEALHNHYTQKSLSLSPG
light: B3 light
notes: IgG anti-PD-1, scFv anti-BTN3A

Kd [1]: 0.167 nM | Kd [2]: 1.9 nM | MFI at 10 nM [3]: 706000 MFI | MFI at 100 nM [3]: 1.24e+06 MFI | MFI at 10 nM [4]: 210000 MFI | MFI at 100 nM [4]: 381000 MFI
B2: bsAb034 (bispecific antibody)
heavy (part 1 of 2): B3 heavy (part 1 of 2)
heavy (part 2 of 2): B3 heavy (part 2 of 2)
heavy: B3 heavy (part 2 of 2)
light: B3 light
notes: as for B4

Kd [1]: 0.08 nM | Jurkat-PD-1 activation at 10 nM [5]: 7.4 fold-change to medium | Jurkat-PD-1 activation at 100 nM [5]: 8.9 fold-change to medium | MFI at 10 nM [6]: 1.18e+06 MFI | MFI at 100 nM [6]: 1.36e+06 MFI | MFI at 10 nM [3]: 592000 MFI | MFI at 100 nM [3]: 1.02e+06 MFI
B5: bsAb048 (bispecific antibody)
heavy 1: EIVLTQSPGTLSLSPGERATLSCRASQRVSSSYLAWYQQKPGQAPRLLIYDASSRATGIPDRFSGSGSGTDFTLTISRLEPEDFAVYYCQQYGSLPWTFGQGTKVEIKGGGGSGGGGSGGGGSGGGGSEVQLVESGGGLVQPGGSLRLSCAASGFTFSRYWMSWVRQAPGKGLEWVANIKQDGSEKYYVDSVKGRFTISRDNAKNSLYLQMNSLRAEDTAVYYCAREGGWFGELAFDYWGQGTLVTVSSGGGGSGGGGSGGGGSGGGGSQVQLVQSGAEVKKPGASVKLSCKASGYIFTRYYMYWVKQRPGQGLEWIGEINPNNGGTKFNEKFKNRATLTVDKSISTAYMELSRLRSDDTAVYYCSREDDYDGTPFAMDYWGQGTLVTVSS
heavy 2: B6 heavy 2
light: not shown
notes: as for B6
